Experimental findings from patent US5811393A (The Childrens Medical Center Corp., priority 1993, dated 1998) are described below.

A short description of assay [1]: Heparin affinity chromatography (NaCl elution from immobilized heparin). Format: binding. As to conditions: partially purified sample, 0.2-2M NaCl gradient, pH 7.5. From the text: Heparin affinity chromatography has been used extensively for purifying and characterizing a variety of these growth factors. Acidic FGF (aFGF) and basic FGF (bFGF) bind to immobilized heparin columns and are eluted with 1.0M to 1.2M NaCl and 1.5M to 1.8M NaCl, respectively (Folkman and Klagsbrun, 235 Science 442, 1987; Lobb et al., 261 J. Biol. Chem. 1924, 1986). Several growth factors which are structurally homologous to aFGF and bFGF also have an affinity for heparin (see, for example, Rubin et al., 86 Proc. Natl. Acad. Sci. USA 802, 1989). PDGF binds to immobilized heparin, but with relatively low affinity, being eluted with only 0.5M NaCl. […] Lobb et al. (261 J. Biol. Chem. 1924, 1986) report the partial purification by heparin affinity of two classes of growth factors mitogenic for endothelial cells. Gospodarowicz et al. (81 Proc. Natl. Acad. Sci. USA 6963, 1984) report the use of heparin affinity in the purification of bovine brain and pituitary fibroblast growth factors. Shing et al. (29 J. Cell Biochem. 275, 1985) report a chondrosarcoma-derived growth factor purified by heparin-Sepharose affinity chromatography and Bio Rex 70 cation exchange chromatography. […]
HB-EHM was purified as follows. Growth factor activity was monitored during the purification procedures using BALB/c mouse 3T3 cells as target cells and measuring [^3 H]-thymidine incorporation into DNA. […]

The subject of assay [2] is bovine aortic smooth muscle cells (BASMC). The experiment in a line: Bovine aortic smooth muscle cell proliferation by cell counting. In kind it is cell-based. As to conditions: 100 pg/ml; cells counted after three days, 1% calf serum. The method, then:
Bovine aortic smooth muscle cell proliferation was also assayed by counting cell number following growth factor stimulation. In these experiments, cells were plated sparsely in 24 well plates in DMEM/10% bovine calf serum/1% GPS (100% GPS is glutamine 29.2 mg/ml, penicillin 10,000 units/ml, streptomycin sulfate 10,000 μg/ml; GIBCO, Grand Island, N.Y.) at 10^4 cells/well. Test samples were then added and, after three days, cells were removed by trypsinization and counted in a Coulter counter (Coulter, Hialeah, Fla.).
BASMC were plated in DMEM, 10% calf serum, 100 U/ml penicillin, 100 μg/ml streptomycin sulfate at 5×10^3 cells/well in a 24 well plate, and, after attachment of the cells (e.g., following an overnight incubation), the media was replaced with DMEM, 1% calf serum, and penicillin and streptomycin as above. HB-EHM, recombinant human EGF (Creative Biomolecules, Hopkinton, Mass.), or recombinant PDGF (Creative Biomolecules, Hopkinton, Mass.) was then added to the wells. Cells were counted after three days.

In another assay the test system is EGF receptors on BASMC. The experiment in a line: Competitive [125I]EGF binding to bovine aortic smooth muscle cells. How it is done: (§1) Competitive binding assays were used to measure this interaction and were performed as follows.
The subject of assay [3] is EGF receptors on A-431 cells. In words: Competitive [125I]EGF binding to A-431 cells. Set-up: species or system human. How it is done: as §1

B1: HB-EHM: novel heparin binding growth factor with EGF-homologous segment, purified from U-937 lymphoma cell conditioned medium, about 22 kD (protein)
chain: RVTLSSKPQALATPNKEEHGKRKKKGKGLGKKRDPCLRKYKDFCIHGECKYVKELRAPSCICHPGYHGERCHGLS
modifications: O-linked glycosylation (suggested by O-glycanase treatment; the threonines predicted at positions 2 and 12 of the form first sequenced were not detected in protein sequencing)
On to B1, for which the “NaCl concentration eluting from the TSK-heparin column” value in assay [1] fell in the range of 1 to 1.2 M. Moreover, in assay [2], the “increase in BASMC proliferation” value is on record as 2.5 fold. For the same molecule, in the assay on EGF receptors on BASMC (BASMC, 6-well plates), the “50% inhibition of [125I]EGF binding” value amounted to 63 pg/mL. Besides, in the assay on EGF receptors on BASMC (purified HB-EHM), the “binding to EGF receptors on SMC” value is “found to bind”. The “inhibition of the binding of [125I]EGF to A-431 cells” value in assay [3] (maximal competition, confluent A-431 cells) was roughly 100%. The “binding to EGF receptors on A-431 cells” value in assay [3] (purified HB-EHM) is recorded as “found to bind”.
